Ratio of the human over cynomolgus IgG concentrations data for one substance are collected here from patent publication US20080181887A1.

The assay has as its target human FcRn (human). Description: BIAcore SPR, soluble IgG over immobilized human FcRn, pH 6.0; reference purified cynomolgus monkey IgG.

Sequence of human FcRn (human) (chain, as listed by the source limits assumed, chain 1 of 2): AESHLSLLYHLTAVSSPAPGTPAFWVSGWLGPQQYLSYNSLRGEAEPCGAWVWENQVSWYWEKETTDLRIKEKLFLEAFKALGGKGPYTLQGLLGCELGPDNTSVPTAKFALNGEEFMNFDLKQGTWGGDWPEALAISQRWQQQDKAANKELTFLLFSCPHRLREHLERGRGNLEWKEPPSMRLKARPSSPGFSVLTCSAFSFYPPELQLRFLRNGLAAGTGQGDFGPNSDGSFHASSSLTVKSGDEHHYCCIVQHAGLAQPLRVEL
Sequence of human FcRn (human) (P61769 21-119 limits assumed, chain 2 of 2): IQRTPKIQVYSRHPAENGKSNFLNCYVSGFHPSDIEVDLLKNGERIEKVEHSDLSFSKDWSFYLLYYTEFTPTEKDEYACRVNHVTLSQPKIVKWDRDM

For the substance “humanized anti-RSV monoclonal antibody MEDI-524 (from UniProt P01857 1-330)”, the ratio of the human over cynomolgus IgG concentrations at Req50% stood at 0.9.
